Data on 3 molecules can be found in patent US20200148774A1 (Genentech, published 2020).

Common to all, as to assay: cell-based or functional assay
The target in assay [1] is T1, human CLL-1 on cells (endogenous on HL-60, EOL-1 and other AML cell lines and CD14+ monocytes); recombinant on … (human, UniProt Q5QGZ9 1-265).
T1 sequence: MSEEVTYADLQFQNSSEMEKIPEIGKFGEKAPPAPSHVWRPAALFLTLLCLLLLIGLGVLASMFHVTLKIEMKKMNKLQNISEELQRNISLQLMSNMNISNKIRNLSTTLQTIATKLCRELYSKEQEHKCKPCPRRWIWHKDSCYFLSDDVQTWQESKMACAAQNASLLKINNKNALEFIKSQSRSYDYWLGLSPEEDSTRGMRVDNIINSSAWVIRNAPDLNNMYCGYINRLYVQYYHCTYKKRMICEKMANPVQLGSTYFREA

The target of assay [2] is T1, human CLL-1 on cells (endogenous on …). The source holds these as a separate data set.
For assay [3] the target is unchanged. This is another data set of the same source.

B1: h6E7 (6E7.L4H1e)×38E4v1 TDB (bispecific antibody, V domains shown)
VH 1: EVQLVQSGAEVKKPGASVKVSCKASGYSFTDYYMHWVRQAPGQGLEWIGRINPYNGAAFYSQNFKDRVTLTVDTSTSTAYLELSSLRSEDTAVYYCAIERGADLEGYAMDYWGQGTLVTVSS
VL 1: DIQMTQSPSSLSASVGDRVTITCRASQSVSTSSYNYMHWYQQKPGKPPKLLIKYASNLESGVPSRFSGSGSGTDFTLTISSLQPEDFATYYCQHSWEIPLTFGQGTKVEIK
VH 2: EVQLVQSGAEVKKPGASVKVSCKASGFTFTSYYIHWVRQAPGQGLEWIGWIYPENDNTKYNEKFKDRVTITADTSTSTAYLELSSLRSEDTAVYYCARDGYSRYYFDYWGQGTLVTVSS
VL 2: DIVMTQSPDSLAVSLGERATINCKSSQSLLNSRTRKNYLAWYQQKPGQSPKLLIYWTSTRKSGVPDRFSGSGSGTDFTLTISSLQAEDVAVYYCKQSFILRTFGQGTKVEIK
As to B1, the “Cell killing EC50 (EOL-1 cells, human CD8+ T cells)” value (from here on “Cell killing EC50”) in assay [1] came to 14 ng/mL. Further, in assay [2], the “average killing EC50, EOL-1 (n = 5)” value was 4.1 ng/mL; the “average killing EC50, HL-60 (n = 2)” value is 104 ng/mL; the “average killing EC50, ML-2” value turned out to be 2.5 ng/mL; the “average killing EC50, Molm-13 (lowest expressor of CLL-1)” value is 23 ng/mL. In addition, in assay [2], the “average killing EC50, NOMO-1” value was determined as 12.2 ng/mL; the “average killing EC50, PL-21” value worked out at 5.9 ng/mL; the “average killing EC50, THP-1 (n = 3)” value amounted to 3.6 ng/mL; the “average killing EC50, U937” value is 2.1 ng/mL. In addition, the “average killing EC50, human autologous CD14+ (n = 3)” value in assay [2] came out at 2.8 ng/ml. Further, in assay [3], the “EC50 for killing target cells (EOL-1)” value stood at 9.1 ng/mL, the “EC50 for killing target cells (THP-1)” value is 5.4 ng/mL, the “EC50 of killing of EOL-1 (other donors)” value was 7.4 ng/mL and the “EC50 of killing of EOL-1 target cells by cynomolgus pan-T cells” value was roughly 5 ng/mL. For the same molecule, the “EC50 of killing of HL-60 (other donors)” value in assay [3] turned out to be 95.6 ng/mL.

B2: 28H12×38E4v1 TDB (bispecific antibody, human IgG1, V domains shown)
VH 1: QVQLQQSGAELVKPGASVKLSCTASGFNIKDTYMHWVKQRPEQGLEWIGRIDPANGDTDYDPKFQGKATVTADTSSNTAYLQLSSLTSEDTAVYYCTISGPPYYVMDYWGQGTSVTVSS
VL 1: DIQMTQSPASLAVSLGQRATISCRASQSVSSSSYSYMHWYQQKPGQPPKLLIKYASNLESGVPARFSGRGSGTDFTLNIHPVEEEDTATYYCQHSWEIPYTFGGGTRLEIK
VH 2: B1 VH 2
VL 2: B1 VL 2
As to B2, in assay [1], the “Cell killing EC50” value is greater than 1000 ng/mL.

B3: 20B1×38E4v1 TDB (bispecific antibody, human IgG1, V domains shown)
VH 1: EVQLQQSGPELVKPGALVKISCKASGYTFTSYDINWLKQRPGQGLEWIGWIYPGDGTTEYNERFKGKATLTADKSSSTAYLQLSSLTSENSAVYFCARSYDYDYAMDYWGQGTSVTVSS
VL 1: DIVLTQSPAIMSASPGEKVTMTCSASSSISYMYWYQQKPGTSPKRWIYDTSKLASGVPARFSGSGSGTSYSLTISSMEAEDAATYYCHQRSSWTFGGGTKLEIK
VH 2: B1 VH 2
VL 2: B1 VL 2
As for B3, in assay [1], the “Cell killing EC50” value amounted to 531 ng/mL.
